We go through 2 molecules from US20160333110A1 (CHIOME BIOSCIENCE, published 2016).

Broadly, the EC50 is the concentration that produces a half-maximal response.

Test [1] concerns the target T1, peptide No. 11 of Table 11 (SEQ ID NO: 219) (human).
T1 peptide: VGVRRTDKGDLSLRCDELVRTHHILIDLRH
The test can be described thus: PEPSCAN/CLIPS peptide ELISA, antibody 1 µg/mL. Here is the method:
(§1) 5034 types of the synthesized peptides were covalently bound to PEPSCAN cards (455 peptides/card), and the binding of the synthesized peptides to antibodies was then analyzed by the ELISA method. […] After washing, the resultant was allowed to react with a 1000-fold diluted peroxidase-secondary antibody complex at 25° C. for 1 hour. After washing, a substrate solution (a solution containing 2,2′-azino-di-3-ethylbenzthiazoline sulfonate (ABTS) and 2 μL of 3% hydrogen peroxide solution) was added to the reaction solution, followed by a chromogenic reaction for 1 hour. The binding activity of the antibodies was quantified by photographing with a CCD camera and then performing an image analysis.
(ELISA stands for enzyme-linked immunosorbent assay.)

The target of test [2] is T2, peptide No. 21 of Table 11 (SEQ ID NO: 229) (human).
T2 peptide: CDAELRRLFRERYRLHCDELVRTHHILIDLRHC
The test can be described thus: PEPSCAN/CLIPS peptide ELISA, antibody 1 µg/mL. Here is the method: as §1

Test [3] concerns the target T3, peptide No. 6 of Table 11 (SEQ ID NO: 214) (human).
T3 peptide: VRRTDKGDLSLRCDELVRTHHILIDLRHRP
The test can be described thus: PEPSCAN/CLIPS peptide ELISA, antibody 1 µg/mL. On the procedure: as §1

Test [4] addresses T4, peptide No. 8 of Table 11 (SEQ ID NO: 216) (human).
T4 peptide: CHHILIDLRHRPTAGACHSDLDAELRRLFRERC
The test can be described thus: PEPSCAN/CLIPS peptide ELISA, antibody 1 µg/mL. On the procedure: as §1

Test [5] addresses T5, peptide No. 15 of Table 11 (SEQ ID NO: 223) (human).
T5 peptide: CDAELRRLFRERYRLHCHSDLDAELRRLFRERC
Briefly: PEPSCAN/CLIPS peptide ELISA, antibody 1 µg/mL. On the procedure: as §1

The target in test [6] is T6, peptide No. 19 of Table 11 (SEQ ID NO: 227) (human).
T6 peptide: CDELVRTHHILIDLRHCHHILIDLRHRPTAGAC
The test can be described thus: PEPSCAN/CLIPS peptide ELISA, antibody 1 µg/mL. Here is the method:
as §1

The target in test [7] is T7, peptide No. 3 of Table 11 (SEQ ID NO: 211) (human).
T7 peptide: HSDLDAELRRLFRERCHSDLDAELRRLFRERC
The test can be described thus: PEPSCAN/CLIPS peptide ELISA, antibody 1 µg/mL. Here is the method:
as §1

The target in test [8] is T8, peptide No. 7 of Table 11 (SEQ ID NO: 215) (human).
T8 peptide: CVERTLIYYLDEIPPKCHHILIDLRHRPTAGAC
The test can be described thus: PEPSCAN/CLIPS peptide ELISA, antibody 1 µg/mL. Here is the method: as §1

Test [9] has as its target T9, peptide No. 4 of Table 11 (SEQ ID NO: 212) (human).
T9 peptide: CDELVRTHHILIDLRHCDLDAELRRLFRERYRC
Briefly: PEPSCAN/CLIPS peptide ELISA, antibody 1 µg/mL. On the procedure:
as §1

Test [10] concerns the target T10, peptide No. 10 of Table 11 (SEQ ID NO: 218) (human).
T10 peptide: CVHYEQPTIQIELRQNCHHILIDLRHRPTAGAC
The test can be described thus: PEPSCAN/CLIPS peptide ELISA, antibody 1 µg/mL. Here is the method: as §1

The target in test [11] is T11, recombinant hTACSTD2-Fc-His protein (Creative BioMart) (human, UniProt P09758 27-274, limits assumed).
T11 construct: bought protein; also called hTROP-2 (low-density antigen-coated ELISA); not shown: Fc part of the bought fusion protein; not described; His tag
T11 sequence: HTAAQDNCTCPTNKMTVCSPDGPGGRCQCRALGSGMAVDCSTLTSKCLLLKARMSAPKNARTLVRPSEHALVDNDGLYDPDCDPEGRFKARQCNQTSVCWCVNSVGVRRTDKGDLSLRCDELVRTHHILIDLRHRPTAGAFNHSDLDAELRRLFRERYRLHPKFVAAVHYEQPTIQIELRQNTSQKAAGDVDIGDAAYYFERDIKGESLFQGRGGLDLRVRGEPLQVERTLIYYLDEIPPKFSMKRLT
The test can be described thus: low-density antigen-coated ELISA, plate coated with 0.1 µg/mL hTACSTD2-Fc-His, purified antibodies; K5-70 (parental antibody); low-density ELISA, 0.1 µg/mL hTROP-2 coat.

B1: anti-hTROP-2 monoclonal antibody clone T6-16 (antibody, mouse IgG2a, V domains shown)
VH: EVQLQQSGPELVKPGASVKISCKASGYTFTDYNMHWVKQSHGKNLEWIGYIYPYNGGTGYNQRFKSRATMTVDKSSSTAYMELRSLTSDDSAVYYCAREDYGSSPSYAMDYWGQGTSVIVSS
VL: DVVMTQTPLSLPVSLGDQASISCRSSQSLVHGNGNTYLHWYLQKPGQSPKLLIYKVSNRFSGVPDRFSGSGSGTDFTLKISRVEAEDLGVYFCSQTTHVPTFGSGTKLEIK
notes: mouse IgG2a, hybridoma FERM BP-11346; also called T6-16 antibody
Regarding B1, the “binding of 16-16” value in [1] was 601; in test [2] it was 527; in test [3], 670; in test [4], 620; in [5], 566; in [6] it was 534. Further, the “binding of 16-16” value in test [7] stood at 714; in [8], 626; in test [9], 713; in test [10] it was 602.

B2: anti-hTROP-2 monoclonal antibody clone K5-70 (antibody, mouse IgG2a, V domains shown)
VH: QVQLQQPGAELVRPGASVKLSCKASGYTFTIYWINWVKQRPGQGLEWIGNIYPSDSYTNYNQKFKDKATLTVDKSSSTAYMQLSSPTSEDSAVYYCTRTSMADYWGQGTTLTVSS
VL: DILLTQSPAILSVSPGERVSFSCRASQSIGTSIHWYQQRTNGSPRLLIKYASESISGIPSRFSGSGSGTDFTLSINSVESEDIADYYCQQSNSWPFTFGSGTKLEIK
notes: mouse IgG2a, hybridoma FERM BP-11251; also called K5-70 antibody; mouse K5-70 antibody
As to B2, the EC50 in test [11] was found to be 0.0114 µg/mL.
